Target: T1, ERK2-phosphorylated human PPARγ2 AF-1 domain (pS112 + pT75), residues 1-136 (human, UniProt P37231-1 1-136)
T1 sequence: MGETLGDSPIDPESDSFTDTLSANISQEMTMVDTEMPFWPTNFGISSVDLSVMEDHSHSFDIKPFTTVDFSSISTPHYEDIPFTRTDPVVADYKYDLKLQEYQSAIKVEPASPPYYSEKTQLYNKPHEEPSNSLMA
Assay: NMR titration

binding result: binds
B1: Pin1 PPIase domain (residues 42-163) (domain or fragment)
chain: SSGGKNGQGEPARVRCSHLLVKHSQSRRPSSWRQEKITRTKEEALELINGYIQKIKSGEEDFESLASQFSDCSSAKARGDLGAFSRGQMQKPFEDASFALRTGEMSGPVFTDSGIHIILRTE

Source: article PMC11291072 (bioRxiv, 2024)
